Test results taken from US20260166139A1 (AKESO BIOPHARMA, published 2026).
Residue numbers refer to the chain shown, from its start. Several values for one entry are separate records, joined by “and”; a condition that tells them apart may be missing. Equal entries are not always repeated. Each block holds one binder with its values, some of them ahead of it.

Tests used:
CTLA4-mFc [1] = biological target: T1, CTLA4-mFc; assay: competitive ELISA, CTLA4-mFc coated, competitor B7/2-His; antibody 3 µg/ml diluted 1:27
T1 construct: also called CTLA4ECD-mFc fusion protein; CTLA4 antigen
Method: (§1) After incubation at 37° C. for 40 minutes, the enzyme conjugated secondary antibody was added. After incubation at 37° C. for 30 minutes, the absorbance at 450 nm was detected on an ELISA plate reader.

CTLA4-mFc [2] = biological target: T1, CTLA4-mFc; assay: competitive ELISA, competitor B7-2
Method: as §1
Target sequence in this assay (chain, as listed by the source limits assumed): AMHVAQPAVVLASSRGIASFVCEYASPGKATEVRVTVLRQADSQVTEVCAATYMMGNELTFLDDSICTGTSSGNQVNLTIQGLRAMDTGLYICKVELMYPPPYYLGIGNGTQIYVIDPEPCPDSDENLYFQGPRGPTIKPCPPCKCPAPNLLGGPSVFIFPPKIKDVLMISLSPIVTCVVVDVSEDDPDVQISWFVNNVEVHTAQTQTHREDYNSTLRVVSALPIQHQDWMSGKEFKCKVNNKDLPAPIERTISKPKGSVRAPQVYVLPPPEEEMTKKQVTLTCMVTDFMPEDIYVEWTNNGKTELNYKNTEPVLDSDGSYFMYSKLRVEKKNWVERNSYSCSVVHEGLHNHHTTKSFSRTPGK

CTLA4-mFc [3] = biological target: T1, CTLA4-mFc; assay: competitive ELISA, competitor B7-1
Method: as §1
Target sequence in this assay (chain, as listed by the source limits assumed): as above

CTLA4-mFc [4] = biological target: T1, CTLA4-mFc; assay: competitive ELISA, competitor B7-1; control run with 8D2H1L1
CTLA4-mFc [5] = biological target: T1, CTLA4-mFc; assay: competitive ELISA, competitor B7-1; control run with 8D2H3L3
CTLA4-mFc [6] = biological target: T1, CTLA4-mFc; assay: competitive ELISA, competitor B7-2; control run with 8D2H2L15
CTLA4-mFc [7] = biological target: T1, CTLA4-mFc; assay: competitive ELISA, competitor B7-2; control run with 8D2H2L17
CTLA4-mFc [8] = biological target: T1, CTLA4-mFc; assay: competitive ELISA, competitor B7-2; control run with 8D2
CTLA4-mFc [9] = biological target: T1, CTLA4-mFc; assay: competitive ELISA, competitor B7-1; control run with 8D2H2L17
CTLA4-mFc [10] = biological target: T1, CTLA4-mFc; assay: competitive ELISA, competitor B7-2; control run with 8D2H3L3
CTLA4-mFc [11] = biological target: T1, CTLA4-mFc; assay: competitive ELISA, competitor B7-2; control run with 8D2H2L2
CTLA4-mFc [12] = biological target: T1, CTLA4-mFc; assay: competitive ELISA, competitor B7-1; control run with 8D2H2L15
CTLA4-mFc [13] = biological target: T1, CTLA4-mFc; assay: competitive ELISA, competitor B7-2; control run with 8D2(Re)
CTLA4-mFc [14] = biological target: T1, CTLA4-mFc; assay: competitive ELISA, competitor B7-2; control run with 8D2H1L1
CTLA4-mFc [15] = biological target: T1, CTLA4-mFc; assay: competitive ELISA, competitor B7-1; control run with 8D2H2L2
CTLA4-mFc [16] = biological target: T1, CTLA4-mFc; assay: competitive ELISA, CTLA4-mFc coated, competitor B7/2-His; antibody 1 µg/ml diluted 1:3
Method: as §1

CTLA4-mFc [17] = biological target: T1, CTLA4-mFc; assay: competitive ELISA, CTLA4-mFc coated, competitor B7/2-His; antibody 1 µg/ml
Method: as §1

[18] = biological target: T2, CTLA4 antigen on the surface of 293F-CTLA4 host cells (UniProt P16410 36-223, limits assumed); assay: flow cytometry, 293F-CTLA4 cells; antibody 1 nM
T2 construct: whole, on cells
T2 sequence (looked up): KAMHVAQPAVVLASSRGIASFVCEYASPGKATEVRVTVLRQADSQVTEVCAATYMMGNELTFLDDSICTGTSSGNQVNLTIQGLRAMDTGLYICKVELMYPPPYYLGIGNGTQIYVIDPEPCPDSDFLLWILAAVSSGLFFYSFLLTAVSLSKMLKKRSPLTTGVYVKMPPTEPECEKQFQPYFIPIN
Method: (§2) After addition of 300 μL PBS, the fluorescent signal was detected using the FITC channel on the flow cytometer.

[19] = biological target: T2, CTLA4 antigen on the surface of …; assay: flow cytometry, 293F-CTLA4 cells; antibody 0.1 nM
Method: as §2

human CTLA4 [20] = biological target: T3, human CTLA4 (human, UniProt P16410 36-161, limits assumed); assay: ELISA on coated CTLA4, source Human
T3 construct: also called human CTLA4 antigen; CTLA4 protein
T3 sequence (looked up): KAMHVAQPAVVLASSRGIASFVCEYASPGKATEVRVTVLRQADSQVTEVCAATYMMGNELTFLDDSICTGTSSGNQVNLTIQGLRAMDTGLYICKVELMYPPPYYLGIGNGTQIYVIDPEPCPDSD
Method: (§3) The ELISA plate was coated with CTLA4 at 4° C. over night. […] The enzyme conjugated secondary antibody was added for incubation for 30 min. Then, the absorbance at 450 nm was determined on an ELISA plate reader.

[21] = biological target: T4, CTLA4 antigen (NCBI Gene ID: 1493) obtained by TEV protease cleavage of CTLA4-mFc (Homo sapiens (Human), UniProt P16410 37-161); assay: BLI (Fortebio), antibody on AR2G sensor, CTLA4 in solution
T4 construct: also called the antigen CTLA4
T4 sequence: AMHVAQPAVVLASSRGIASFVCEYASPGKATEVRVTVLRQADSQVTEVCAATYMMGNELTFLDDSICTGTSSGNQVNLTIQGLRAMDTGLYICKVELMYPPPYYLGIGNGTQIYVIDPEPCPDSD
Method: 2. […] After equilibration in PBST, the CTLA4 antigen was added for binding. […] Dissociation occurred in PBST.

[22] = biological target: T2, CTLA4 antigen on the surface of …; assay: flow cytometry, 293F-CTLA4 cells; antibody 5 nM
Method: as §2

[23] = biological target: T2, CTLA4 antigen on the surface of …; assay: flow cytometry, 293F-CTLA4 cells; antibody 0.01 nM
Method: as §2

[24] = biological target: T2, CTLA4 antigen on the surface of …; assay: flow cytometry, 293F-CTLA4 cells; antibody 0.001 nM
Method: as §2

monkey CTLA4-hFc [25] = biological target: T5, monkey CTLA4-hFc (monkey); assay: ELISA on coated CTLA4, source Monkey
T5 construct: also called monkey CTLA4 antigen
Method: as §3

[26] = biological target: T2, CTLA4 antigen on the surface of …; assay: flow cytometry, 293F-CTLA4 cells
Method: as §2

[27] = biological target: T2, CTLA4 antigen on the surface of …; assay: flow cytometry, 293F-CTLA4 cells; antibody 25 nM
Method: as §2

[28] = biological target: T2, CTLA4 antigen on the surface of …; assay: flow cytometry, 293F-CTLA4 cells; antibody 10 nM
Method: as §2

monkey CTLA4-hFc [29] = biological target: T5, monkey CTLA4-hFc; assay: ELISA, coat monkey CTLA4-hFc 0.25 ug/ml; antibody 0 (blank)
Method: as §3

CTLA4-mFc [30] = biological target: T1, CTLA4-mFc; assay: competitive ELISA, B7/1-hFc coated (competitor), CTLA4-mFc added; antibody 5 µg/ml diluted 1:3
Method: as §1

CTLA4-mFc [31] = biological target: T1, CTLA4-mFc; assay: competitive ELISA, CTLA4-mFc coated, competitor B7/2-His; antibody 1 µg/ml diluted 1:81
Method: as §1

CTLA4-mFc [32] = biological target: T1, CTLA4-mFc; assay: competitive ELISA, B7/1-hFc coated (competitor), CTLA4-mFc added; antibody 5 µg/ml
Method: as §1

human CTLA4 [33] = biological target: T3, human CTLA4; assay: ELISA, coat human CTLA4 0.5 ug/ml; antibody 0 (blank)
Method: as §3

CTLA4-mFc [34] = biological target: T1, CTLA4-mFc; assay: competitive ELISA, B7/1-hFc coated (competitor), CTLA4-mFc added; antibody 5 µg/ml diluted 1:9
Method: as §1

CTLA4-mFc [35] = biological target: T1, CTLA4-mFc; assay: competitive ELISA, B7/1-hFc coated (competitor), CTLA4-mFc added; antibody 0 (no antibody)
Method: as §1

absorbance at 450 nm (CTLA4-mFc [1]): 0.675
EC50 (CTLA4-mFc [2]): 0.208 nM
EC50 (CTLA4-mFc [3]): 0.44 nM
B1: monoclonal antibody 8D2 (antibody, V domains shown)
VH: EVKLDETGGGLVQPGRPMKLSCVASGFTFSDNWMNWVRQSPEKGLEWLAQIRNKPYNYETYYSDSVKGRFTISRDDSKSSVYLQMNNLRGEDMGIYYCTAQFAYWGQGTLVTVSA
VL: DIQMTQSPASLSASVGETVTITCGTSENIYGGLNWYQRKQGKSPQLLIFGATNLADGMSSRFSGSGSGRQYSLKISSLHPDDVATYYCQNVLRSPFTFGSGTKLEI
notes: Mouse antibody purified from hybridoma supernatant; also called mAb 8D2; antibody secreted by the CTLA4-8D2 hybridoma cell line LT001

absorbance at 450 nm (CTLA4-mFc [34]): 0.08
absorbance at 450 nm (CTLA4-mFc [16]): 0.05
EC50 (CTLA4-mFc [2]): 0.296 nM
absorbance at 450 nm (CTLA4-mFc [17]): 0.05
EC50 (CTLA4-mFc [3]): 1.79 nM
absorbance at 450 nm (CTLA4-mFc [35]): 1.18
B6: humanized antibody 8D2H2L17 (antibody, V domains shown)
VH: EVQLVESGGGLVQPGGSMRLSCAASGFTFSDNWMNWVRQAPGKGLEWLAQIRNKPYNYETYYSASVKGRFTISRDDSKNSVYLQMNSLKTEDTGVYYCTAQFAYWGQGTLVTVSS
VL: DIQMTQSPSSLSASVGDRVTITCRTSENIYGGLNWYQRKPGKSPKLLIYGATNLASGVSSRFSGSGSGTDYTLTISSLQPEDVATYYCQNVLSSRPGFGSGTKLEIK

The next lines start with the binder.

B2: control antibody 10D1 (antibody, V domains shown)
VH: QVQLVESGGGVVQPGRSLRLSCAASGFTFSSYTMHWVRQAPGKGLEWVTFISYDGNNKYYADSVKGRFTISRDNSKNTLYLQMNSLRAEDTAIYYCARTGWLGPFDYWGQGTLVTVSS
VL: not shown
EC50 (CTLA4-mFc [4]): 1.91 nM
EC50 (CTLA4-mFc [5]): 5.15 nM
EC50 (CTLA4-mFc [6]): 0.629 nM
EC50 (CTLA4-mFc [7]): 0.629 nM
EC50 (CTLA4-mFc [8]): 0.464 nM
EC50 (CTLA4-mFc [9]): 4.59 nM
EC50 (CTLA4-mFc [10]): 2.06 nM
EC50 (CTLA4-mFc [11]): 2.06 nM
EC50 (CTLA4-mFc [12]): 4.59 nM
EC50 (CTLA4-mFc [13]): 0.464 nM
EC50 (CTLA4-mFc [14]): 0.464 nM
EC50 (CTLA4-mFc [15]): 5.15 nM
absorbance at 450 nm (CTLA4-mFc [16]): 0.07
absorbance at 450 nm (CTLA4-mFc [17]): 0.05

B3: humanized antibody 8D2H2L2 (antibody, V domains shown)
VH: B6 VH
VL: B6 VL with S93R, R95P, P96F, G97T
notes: also called 8D2H2L2(20150327); 8D2H2L2(20140422)
fluorescence intensity [18]: 625
fluorescence intensity [19]: 124
EC50 (human CTLA4 [20]): 0.12 nM and 0.082 nM and 0.118 nM
Kd [21]: 0.955 nM
koff [21]: 0.000388 s⁻¹
kon [21]: 407000 M⁻¹ s⁻¹
fluorescence intensity [22]: 972
fluorescence intensity [23]: 32.5
fluorescence intensity [24]: 10.8
EC50 (monkey CTLA4-hFc [25]): 0.227 nM
EC50 [26]: 4.37 nM
fluorescence intensity [27]: 1130
fluorescence intensity [28]: 1160
absorbance at 450 nm (monkey CTLA4-hFc [29]): 0.048

B4: humanized antibody 8D2H2L15 (antibody, V domains shown)
VH: B6 VH
VL: B6 VL with S94R, R95H
absorbance at 450 nm (CTLA4-mFc [16]): 0.05
absorbance at 450 nm (CTLA4-mFc [30]): 0.07
EC50 (CTLA4-mFc [2]): 0.227 nM
absorbance at 450 nm (CTLA4-mFc [31]): 0.75
absorbance at 450 nm (CTLA4-mFc [17]): 0.05
EC50 (CTLA4-mFc [3]): 1.97 nM
absorbance at 450 nm (CTLA4-mFc [32]): 0.07

B5: humanized antibody 8D2H1L1 (antibody, V domains shown)
VH: B6 VH with A64D
VL: B6 VL with P40Q, V58M, T74K, Q79H, E81D, S93R, R95P, P96F, G97T
fluorescence intensity [18]: 103
fluorescence intensity [19]: 21.2
Kd [21]: 0.608 nM
koff [21]: 0.000207 s⁻¹
kon [21]: 340000 M⁻¹ s⁻¹
fluorescence intensity [22]: 559
absorbance at 450 nm (human CTLA4 [33]): 0.067
fluorescence intensity [23]: 10.8
fluorescence intensity [24]: 10.8
EC50 [26]: 5.06 nM
fluorescence intensity [27]: 1170
fluorescence intensity [28]: 944
